Data on two molecules can be found in US20080249008A1 (published 2008).

The target in assay [1] is T1, EGFR on NR6 fibroblast cells (UniProt P00533 25-1210, limits assumed).
T1 construct: whole, on cells; also called fibroblast cells expressing EGFR; NR6 fibroblasts
Kind of assay: competition with Alexa-488 labeled wt EGF on NR6 fibroblast cells, flow cytometry, 2 hr at 4 C.
Procedure: (§1) Fluorescence intensity of cell surface labeling was measured by flow cytometry.

The target of assay [2] is T1, EGFR on NR6 fibroblast cells. Briefly: competition for binding to fibroblast cells, flow cytometry.
Procedure: as §1

B1: EGF mutant clone 30 (soluble) (ligand)
chain: SSNSGCPLSHDGYCLHDGVCMYIEALDRYACNCVVGYAGERCQYRDLKWWELR
notes: Produced solubly
B1 showed a dissociation constant Kd in assay [1] of 0.56 nM.

B2: EGF mutant clone 121 (competitor on NR6 cells) (ligand)
chain: NSDPKCPLSHEGYCLNDGVCMYIGTLDRYACNCVVGYVGERCQYRDLKWLALR
In assay [2], B2 registered a concentration for half-maximal inhibition (IC50) of 0.14 nM. This lies in the sub-nanomolar range.
